Assay results from US20200247885A1.

Molecular target: murine P2X purinoceptor 4 (Q9JJX6) (mouse) (UniProt Q9JJX6)
Experiment: cell-based or functional assay

Sequence of UniProt Q9JJX6 (Q9JJX6 whole entry, form in doubt): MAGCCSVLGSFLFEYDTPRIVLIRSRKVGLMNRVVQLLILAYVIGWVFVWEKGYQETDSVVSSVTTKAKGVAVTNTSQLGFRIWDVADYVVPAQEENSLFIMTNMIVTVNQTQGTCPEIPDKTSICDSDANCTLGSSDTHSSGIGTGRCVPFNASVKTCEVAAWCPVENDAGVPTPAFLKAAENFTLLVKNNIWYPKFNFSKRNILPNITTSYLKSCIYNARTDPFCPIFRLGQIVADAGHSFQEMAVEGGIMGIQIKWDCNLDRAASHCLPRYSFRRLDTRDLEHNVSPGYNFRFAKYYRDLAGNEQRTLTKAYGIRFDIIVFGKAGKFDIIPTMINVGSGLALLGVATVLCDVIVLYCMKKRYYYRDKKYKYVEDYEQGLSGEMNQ

Question: Which fraction of control current (fraction of control current) does the source give for hIgG1 NIP 228 TM (antibody) here?
Answer: 1.08
